Data taken from article PMC7556753, “A double role of the Gal80 N terminus in activation of transcription by Gal4p” (Life Science Alliance, 2020).

Legend:
[1] = target: T1, KlGal1p with N-terminal His6-tag (NHKlGal1p) (Kluyveromyces lactis) (UniProt P09608)
T1 sequence: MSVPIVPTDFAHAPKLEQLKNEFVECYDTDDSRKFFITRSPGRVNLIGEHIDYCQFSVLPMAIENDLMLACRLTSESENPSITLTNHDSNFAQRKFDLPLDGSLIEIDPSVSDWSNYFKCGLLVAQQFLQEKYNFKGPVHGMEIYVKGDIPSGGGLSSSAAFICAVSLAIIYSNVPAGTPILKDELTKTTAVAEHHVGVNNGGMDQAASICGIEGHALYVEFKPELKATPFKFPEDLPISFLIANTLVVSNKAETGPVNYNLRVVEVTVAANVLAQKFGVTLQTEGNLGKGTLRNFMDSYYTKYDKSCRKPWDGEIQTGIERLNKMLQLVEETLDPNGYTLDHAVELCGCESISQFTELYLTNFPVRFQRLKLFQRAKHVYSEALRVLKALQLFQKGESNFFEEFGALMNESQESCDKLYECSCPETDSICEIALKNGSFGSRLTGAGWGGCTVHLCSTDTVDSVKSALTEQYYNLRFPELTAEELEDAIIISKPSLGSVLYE

[2] = target: T1, KlGal1p with N-terminal His6-tag (NHKlGal1p) (Kluyveromyces lactis); test: galactokinase inhibition titration; 10 nM NHGal1p with increasing concentrations of NHKlGal80p or NHKlGal80-KR56Ap; ADP production coupled to pyruvate kinase and lactate dehydrogenase (NADH consumption); apparent KD from the decline in KlGal1p activity
[3] = target: T2, KlGal1p with N-terminal His6-tag (NHKlGal1p) (Kluyveromyces lactis, UniProt P09608 1-503); test: as above; settings: both partners purified
T2 construct: KlGal1p, galactokinase (Gal1 protein) of Kluyveromyces lactis; also called NHGal1p; source: E. coli Rosetta (DE3)-pLys, from pETNHG1, purified as described in Anders et al, 2006b; not shown: His6, N-terminal, kept
T2 sequence (looked up): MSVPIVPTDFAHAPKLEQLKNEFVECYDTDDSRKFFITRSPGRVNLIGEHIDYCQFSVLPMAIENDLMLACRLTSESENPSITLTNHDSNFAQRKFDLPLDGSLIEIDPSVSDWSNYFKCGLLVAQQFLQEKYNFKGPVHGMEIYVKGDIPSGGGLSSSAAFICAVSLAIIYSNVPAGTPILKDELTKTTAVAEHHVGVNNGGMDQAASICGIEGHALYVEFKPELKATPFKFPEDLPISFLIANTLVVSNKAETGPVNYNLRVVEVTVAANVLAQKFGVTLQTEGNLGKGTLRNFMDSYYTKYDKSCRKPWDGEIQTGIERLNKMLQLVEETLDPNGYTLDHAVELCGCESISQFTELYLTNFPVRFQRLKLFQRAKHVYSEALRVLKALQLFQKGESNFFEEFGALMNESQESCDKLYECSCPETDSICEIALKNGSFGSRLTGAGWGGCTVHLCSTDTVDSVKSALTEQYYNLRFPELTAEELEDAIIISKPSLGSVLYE

KlGal80-K5A/R6Ap with N-terminal His6-tag (NHKlGal80-K5A/R6Ap) (from UniProt Q06433 1-457) (natural protein)
relative galactokinase activity of KlGal1p with KlGal80-K5A/R6Ap (in % of the activity in the absence of KlGal80p or its peptide) [1]: 93.6%
Kd [2]: 3.1 µM

B1: KlGal80p with N-terminal His6-tag (NHKlGal80p) (natural protein, Kluyveromyces lactis)
chain: MNNNKRSKLSTVPSSRPIRVGFVGLTSGKSWVAKTHFLAIQQLSSQFQIVALYNPTLKSSLQTIEQLQLKHATGFDSLESFAQYKDIDMIVVSVKVPEHYEVVKNILEHSSQNLNLRYLYVEWALAASVQQAEELYSISQQRANLQTIICLQGRKSPYIVRAKELISEGCIGDINSIEISGNGGWYGYERPMRSPEYLYDIESGVNLISNSFGHTIDVLQYITGSYFQKINAMISNNIPTQFLLDENGKRTKETISKTCPDHLLFQGILENGKVPVSCSFKGGTPVKKLTKNLVIDIHGTKGDLKIEGDAGFVEISNLVLYFYGIKNGNGSSNGTDNNGAAAIKDKEKVTKSPSPSTGTSEEEQTMEVFHLRNYNSVVGNILRIYESIADYHFLGKPESKSSRGPDDLFASTKFDKQGFRFEGFPTFKDAIILHRLIDAVFRSDKEEKTLDVSKIMI
notes: KlGal80p, Gal80 protein of Kluyveromyces lactis, wild type; 457 residues by the printed fragment aa 40-457; also called KlGal80p wild-type; source: E. coli Rosetta (DE3)-pLys, from pETNHG80, purified as described in Anders et al, 2006b; not shown: His6, N-terminal, kept
Kd [3]: 0.081 µM

MNNNKRSKLSTVPSSRP [peptide KlN17G80 (N-terminal 17 residues of KlGal80p)]
relative galactokinase activity of KlGal1p with the KlN17G80 peptide alone (in % of the activity in the absence of KlGal80p or its peptide) [1]: 99.4%
